This passage reports EC50 results from US20240254233A1 (IMMUNEONCIA THERAPEUTICS, published 2024).

As usually defined, the EC50 is the concentration needed to bring the measured effect to its halfway point.

In one assay the target is T1, recombinant human CD47 (human, UniProt Q08722 19-139, limits assumed).
T1 construct: also called single ligand (CD47)
As to the kind of experiment: ELISA, recombinant human CD47 coated at 50 ng/well, anti-human IgG Fcγ-HRP detection.

Assay [1] concerns the target T2, recombinant human CD47-fc (human, UniProt Q08722 19-139, limits assumed).
T2 construct: Coated at 50 ng/well in the dual-ligand ELISA
As to the kind of experiment: dual-ligand (bridging) ELISA: CD47-fc coated, antibody titrated, then PD-L1-his at 50 ng/well, anti-his-HRP detection. (An ELISA detects its analyte on a solid surface through an enzyme-linked reagent.)

In another assay the target is T3, recombinant human PD-L1 (human, UniProt Q9NZQ7 19-238, limits assumed).
T3 construct: also called single ligand (PD-L1)
T3 sequence (Q9NZQ7 19-238 limits assumed): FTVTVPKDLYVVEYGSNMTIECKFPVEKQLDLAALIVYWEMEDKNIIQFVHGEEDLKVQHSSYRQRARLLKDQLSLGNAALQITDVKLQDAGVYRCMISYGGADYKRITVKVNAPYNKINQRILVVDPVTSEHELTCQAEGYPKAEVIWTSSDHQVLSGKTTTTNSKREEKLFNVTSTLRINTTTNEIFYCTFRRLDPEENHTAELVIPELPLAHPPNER
Kind of assay: ELISA, recombinant human PD-L1 coated at 75 ng/well, anti-human IgG Fcγ-HRP detection.

T1 sequence (Q08722 19-139 limits assumed): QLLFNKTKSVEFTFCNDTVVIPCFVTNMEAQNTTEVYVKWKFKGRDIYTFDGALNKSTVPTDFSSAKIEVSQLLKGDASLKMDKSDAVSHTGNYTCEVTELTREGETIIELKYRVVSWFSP
T2 sequence (Q08722 19-139 limits assumed): as above

B1: IMC-201 (bispecific antibody, human IgG1, lambda)
heavy: not shown
light: QSALTQPASVSGSPGQSISISCTGTSSDVGGHNYVSWYQQHPGKAPKLMIYDVRNRPSGVSNRFSGSKSGSTASLTISGLQTEDEADYYCNSYTGSRTYVFGSGTKLTVLGQPKAAPSVTLFPPSSEELQANKATLVCLISDFYPGAVTVAWKADSSPVKAGVETTTPSKQSNNKYAASSYLSLTPEQWKSHRSYSCQVTHEGSTVEKTVAPTECS
notes: also called Ab 1159.1
On to B1, for which the results for the EC50 (in the assay with recombinant human CD47; in assay [1]; with recombinant human PD-L1) were 4.09 ng/mL, 0.0174 µg/mL and 7.24 ng/mL, respectively.

B2: IMC-001 (antibody, V domains shown)
VH: QMQLVQSGAEVKKPGSSVKVSCKASGGTFSSYAYSWVRQAPGQGLEWMGGIIPSFGTANYAQKFQGRVTITADESTSTAYMELSSLRSEDTAVYYCARGPIVATITPLDYWGQGTLVTVSS
VL: SYVLTQPPSVSVAPGKTATIACGGENIGRKTVHWYQQKPGQAPVLVIYYDSDRPSGIPERFSGSNSGNTATLTISRVEAGDEADYYCLVWDSSSDHRIFGGGTKLTVL
Regarding B2, the EC50 with recombinant human PD-L1 was 0.989 ng/mL.

B3: IMC-002 (antibody, V domains shown)
VH: QVQLVQSGAEVKKPGASVKVSCKASGYTFTSYYMHWVRQAPGQGLEWMGIINPSGGSTSYAQKFQGRVTMTRDTSTSTVYMELSSLRSEDTAVYYCARSTLWVSEFDYWGQGTLVTVSS
VL: QSALTQPASVSGSPGQSISISCTGTSSDVGGHNYVSWYQQHPGKAPKLMIYDVRNRPSGVSNRFSGSKSGSTASLTISGLQTEDEADYYCNSYTGSRTYVFGSGTKLTVLG
As for B3, the EC50 in the assay with recombinant human CD47 worked out at 2.77 ng/mL.
